B1: NKG2D-Fc fusion protein (Fc fusion, human, UniProt P26718 73-216, looked up)
chain: IWSAVFLNSLFNQEVQIPLTESYCGPCPKNWICYKNNCYQFFDESKNWYESQASCMSQNASLLKVYSKEDQDLLKLVKSYHWMGLVHIPTNGSWQWEDGSILSPNLLTIIEMQKGDCALYASSFKGYIENCSTPNTYICMQRTV
notes: Produced in 293T cells, purified on Protein A. 'The fusion was C-terminal to human IgG1 hinge-CH2-CH3 domains'; also called recombinant soluble Fc fusion protein of NKG2D; not shown: human IgG1 hinge-CH2-CH3 domains, N-terminal to NKG2D (in pcDNA3.0)
B2: UL16 Fc fusion (Fc fusion)
chain: VDLGSKSSNSTCRLNVTELASIHPGETWTLHGMCISICYYENVTEDEIIGVAFTWQHNESVVDLWLYQNDTVIRNFSDITTNILQDGLKMRTVPVTKLYTSRMVTNLTVGRYDCLRCENGTTKIIERLYVRLGSLYPRPPGSGLAKHPSVSADEELSA
notes: not shown: human IgG1 CH2-CH3, C-terminal to UL16 (vector SignalpIgplus)
B3: soluble recombinant extracellular domain of RAET1G, 6-Histidine N-terminal fusion (ligand, human)
chain: HHHHHHGLADPHSLCYDITVIPKFRPGPRWCAVQGQVDEKTFLHYDCGSKTVTPVSPLGKKLNVTTAWKAQNPVLREVVDILTEQLLDIQLENYIPKEPLTLQARMSCEQKAEGHGSGSWQLSFDGQIFLLFDSENRMWTTVHPGARKMKEKWENDKDMTMSFHYISMGDCTGWLEDFLMGMDSTLEPSAGAPPTMSSGTAQPR
notes: extracellular domain; also called 6-His tagged recombinant RAET1G

Assays:
[1] = target: T1, soluble recombinant extracellular domain of RAET1E, 6-Histidine N-terminal fusion (human, UniProt Q8TD07 31-225); test: SPR (BIACore 2000), NKG2D-Fc captured on anti-human IgG, RAET1E as analyte; derived from joint fit
T1 construct: extracellular domain
T1 sequence: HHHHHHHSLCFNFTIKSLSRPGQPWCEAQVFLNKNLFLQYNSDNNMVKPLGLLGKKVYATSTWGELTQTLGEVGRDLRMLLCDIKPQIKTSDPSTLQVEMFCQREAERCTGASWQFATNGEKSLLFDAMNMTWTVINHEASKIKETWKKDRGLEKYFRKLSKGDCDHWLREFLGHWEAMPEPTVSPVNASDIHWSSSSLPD
Description: (§1) SPR was carried out on a BIACore2000 machine. Running buffer, sensor chips and surface coupling reagents were from BIACore. Anti Human IgG (Dako) was coupled to a CM5 surface using NHS/EDC chemistry. […] Surface regeneration was using 5 μl of 10 mM HCl. […] Kinetic analysis was performed using BIAEvaluation 3.1 software.

[2] = target: B3; test: SPR (BIACore 2000), NKG2D-Fc captured on anti-human IgG, RAET1G as analyte; derived from joint fit
Description: as §1

[3] = target: T2, soluble recombinant extracellular domain of ULBP1, 6-Histidine N-terminal fusion (human, UniProt Q9BZM6 26-216, limits assumed); test: SPR (BIACore 2000), NKG2D-Fc captured on anti-human IgG, ULBP1 as analyte; derived from joint fit
T2 construct: extracellular domain
T2 sequence: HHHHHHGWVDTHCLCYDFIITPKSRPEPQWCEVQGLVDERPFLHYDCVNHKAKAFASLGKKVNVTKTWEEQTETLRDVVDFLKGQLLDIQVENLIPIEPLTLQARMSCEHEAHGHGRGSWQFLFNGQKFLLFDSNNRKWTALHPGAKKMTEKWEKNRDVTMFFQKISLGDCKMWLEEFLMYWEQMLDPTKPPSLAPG
Description: as §1

[4] = target: B3; test: SPR (BIACore 2000), NKG2D-Fc captured on anti-human IgG, RAET1G as analyte; separate off-rate fit
Description: as §1

[5] = target: T3, soluble recombinant extracellular domain of ULBP2, 6-Histidine N-terminal fusion (human, UniProt Q9BZM5 26-217, limits assumed); test: SPR (BIACore 2000), NKG2D-Fc captured on anti-human IgG, ULBP2 as analyte; joint global fit
T3 construct: extracellular domain
T3 sequence: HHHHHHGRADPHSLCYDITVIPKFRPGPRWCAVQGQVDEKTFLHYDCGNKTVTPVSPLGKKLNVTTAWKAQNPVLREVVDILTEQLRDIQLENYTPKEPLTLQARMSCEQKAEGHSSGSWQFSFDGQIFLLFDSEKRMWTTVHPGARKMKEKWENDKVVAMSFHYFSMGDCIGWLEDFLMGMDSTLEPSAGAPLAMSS
Description: as §1

[6] = target: T1, soluble recombinant extracellular …; test: SPR (BIACore 2000), NKG2D-Fc captured on anti-human IgG, RAET1E as analyte; separate off-rate fit
Description: as §1

[7] = target: T3, soluble recombinant extracellular …; test: SPR (BIACore 2000), NKG2D-Fc captured on anti-human IgG, ULBP2 as analyte; derived from joint fit
Description: as §1

[8] = target: T4, soluble recombinant extracellular domain of ULBP3, 6-Histidine N-terminal fusion (human, UniProt Q9BZM4 30-217, limits assumed); test: SPR (BIACore 2000), NKG2D-Fc captured on anti-human IgG, ULBP3 as analyte; derived from joint fit
T4 construct: extracellular domain
T4 sequence: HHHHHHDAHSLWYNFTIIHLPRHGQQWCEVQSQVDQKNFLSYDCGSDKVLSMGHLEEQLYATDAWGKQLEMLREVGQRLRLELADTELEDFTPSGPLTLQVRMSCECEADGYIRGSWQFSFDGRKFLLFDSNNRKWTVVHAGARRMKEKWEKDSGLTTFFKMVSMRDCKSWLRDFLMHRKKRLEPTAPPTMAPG
Description: as §1

[9] = target: T3, soluble recombinant extracellular …; test: SPR (BIACore 2000), NKG2D-Fc captured on anti-human IgG, ULBP2 as analyte; separate off-rate fit
Description: as §1

[10] = target: T2, soluble recombinant extracellular …; test: SPR (BIACore 2000), NKG2D-Fc captured on anti-human IgG, ULBP1 as analyte; joint global fit
Description: as §1

[11] = target: T2, soluble recombinant extracellular …; test: SPR (BIACore 2000), NKG2D-Fc captured on anti-human IgG, ULBP1 as analyte; separate off-rate fit
Description: as §1

[12] = target: T1, soluble recombinant extracellular …; test: SPR (BIACore 2000), NKG2D-Fc captured on anti-human IgG, RAET1E as analyte; joint global fit
Description: as §1

[13] = target: T4, soluble recombinant extracellular …; test: SPR (BIACore 2000), NKG2D-Fc captured on anti-human IgG, ULBP3 as analyte; separate off-rate fit
Description: as §1

[14] = target: T4, soluble recombinant extracellular …; test: SPR (BIACore 2000), NKG2D-Fc captured on anti-human IgG, ULBP3 as analyte; joint global fit
Description: as §1

[15] = target: B3; test: SPR (BIACore 2000), NKG2D-Fc captured on anti-human IgG, RAET1G as analyte; joint global fit
Description: as §1

[16] = target: T1, soluble recombinant extracellular …; test: SPR (BIACore 2000), UL16-Fc captured on anti-human IgG, RAET1E as analyte; joint global fit
[17] = target: T1, soluble recombinant extracellular …; test: SPR (BIACore 2000), UL16-Fc captured on anti-human IgG, RAET1E as analyte; derived from joint fit
[18] = target: T2, soluble recombinant extracellular …; test: SPR (BIACore 2000), UL16-Fc captured on anti-human IgG, ULBP1 as analyte; derived from joint fit
[19] = target: B3; test: SPR (BIACore 2000), UL16-Fc captured on anti-human IgG, RAET1G as analyte; derived from joint fit
[20] = target: T2, soluble recombinant extracellular …; test: SPR (BIACore 2000), UL16-Fc captured on anti-human IgG, ULBP1 as analyte; joint global fit
[21] = target: B3; test: SPR (BIACore 2000), UL16-Fc captured on anti-human IgG, RAET1G as analyte; joint global fit
[22] = target: B2; test: SPR (BIACore 2000); kon on UL16-Fc against kon on NKG2D-Fc
[23] = target: B1; test: SPR (BIACore 2000); RAET1G against ULBP2 on NKG2D-Fc
Description: as §1

## B1
[1]
  Kd: 39 nM
[2]
  Kd: 356 nM
[3]
  Kd: 1680 nM
[4]
  koff: 0.003 s⁻¹
[5]
  koff: 0.063 s⁻¹
[6]
  koff: 0.005 s⁻¹
[7]
  Kd: 7160 nM
[8]
  Kd: 2290 nM
[9]
  koff: 0.0336 s⁻¹
[10]
  koff: 0.0073 s⁻¹
  kon: 4360 M⁻¹ s⁻¹
[11]
  koff: 0.0069 s⁻¹
[12]
  koff: 0.00292 s⁻¹
  kon: 74900 M⁻¹ s⁻¹
[13]
  koff: 0.005 s⁻¹
[14]
  koff: 0.00537 s⁻¹
  kon: 2350 M⁻¹ s⁻¹
[15]
  koff: 0.00374 s⁻¹
  kon: 10500 M⁻¹ s⁻¹

## B2
[16]
  koff: 0.00595 s⁻¹
  kon: 11800 M⁻¹ s⁻¹
[17]
  Kd: 504 nM
[18]
  Kd: 243 nM
[19]
  Kd: 75.6 nM
[20]
  koff: 0.000597 s⁻¹
  kon: 2460 M⁻¹ s⁻¹
[21]
  koff: 0.00871 s⁻¹
  kon: 115000 M⁻¹ s⁻¹

## B3
[22]
  fold faster association rate for UL16 than for NKG2D: 10 fold
[23]
  fold difference in affinity against ULBP2: 20 fold

Reference: patent US20080038248A1 (published 2008)
